Measured values published in patent publication US11524046B2, “Biofilm prevention, disruption and treatment with bacteriophage lysin” (priority 2012, dated 2022).

How the values were obtained:
[1] = test system: biofilms of BAA-42 MRSA; experiment: Biofilm eradication in 24-well plates, crystal violet staining; assay type: cell-based, S. aureus
[2] = test system: Streptococcus agalactiae, Group B; experiment: MIC of PlySs2, susceptible and non-susceptible bacterial strains; assay type: cell-based; conditions: Group B (51)
[3] = test system: Escherichia coli; conditions: Escherichia coli (6)
[4] = test system: S. aureus strains; experiment: PlySs2 and antibiotic MIC, broth microdilution, 80% growth inhibition (CLSI M07-A9); assay type: cell-based
[5] = test system: Enterococcus faecium; conditions: Enterococcus faecium (5)
[6] = test system: Streptococcus pneumoniae; experiment: MIC of PlySs2, susceptible and non-susceptible bacterial strains; assay type: cell-based; conditions: Streptococcus pneumoniae (26)
[7] = test system: Pseudomonas aeruginosa; conditions: Pseudomonas aeruginosa (5)
[8] = test system: Staphylococcus epidermidis biofilms; experiment: Biofilm eradicating concentration (BEC), 24 h biofilms in 24 well plates, crystal violet; assay type: cell-based
[9] = test system: S. aureus MRSA strain BAA-42; experiment: Biofilm prevention assay, 24 well plate, crystal violet; assay type: cell-based; conditions: added with bacteria, 6 hours

B1: PlySs2: bacteriophage lysin derived from Streptococcus suis, amino acid sequence of FIG. 5 / SEQ ID NO: 1; CHAP and SH3 domains (protein, listed as Streptococcus suis)
chain: MTTVNEALNNVRAQVGSGVSVGNGECYALASWYERMISPDATVGLGAGVGWVSGAIGDTISAKNIGSSYNWQANGWTVSTSGPFKAGQIVTLGATPGNPYGHVVIVEAVDGDRLTILEQNYGGKRYPVRNYYSAASYRQQVVHYITPPGTVAQSAPNLAGSRSYRETGTMTVTVDALNVRRAPNTSGEIVAVYKRGESFDYDTVIIDVNGYVWVSYIGGSGKRNYVATGATKDGKRFGNAWGTFK
For B1, the biofilm dissolution ([1]; 3.2 μg/ml (1/10×MIC), 4 hours) was “Significant dissolution”, the “time by which full clearance was observed” value ([1]; 0.01×MIC) was ≤ 24 h and the biofilm clearance ([1]; 0.01×MIC, 4 hours) was “partial clearance”. For the same molecule, the “time by which the biofilm is cleared” value ([1]; 0.1×MIC) was ≤ 4 h, the biofilm dissolution ([1]; 0.32 (1/100×MIC), 4 hours) was “some dissolution” and the “time by which the biofilm is cleared” value ([1]; 1×MIC 32 μg/ml) was ≤ 2 h. For the same molecule, the “MIC 50%” value [2] was 8 µg/mL, the “MIC 90%” value [2] was 16 µg/mL and the “MIC Range” value [2] was 1 to 64 µg/mL. For the same molecule, the “MIC 50%” value [3] was >512 µg/mL, the “MIC 90%” value [3] was >512 µg/mL and the “MIC Range” value [3] was >512 µg/mL. For the same molecule, the “MIC90” value ([4]; DRSA (n = 8)) was 0.15 µM, the “MIC90” value ([4]; LRSA (n = 5)) was 0.08 µM and the “MIC90” value ([4]; MRSA (n = 45)) was 0.15 µM. For the same molecule, the “MIC90” value ([4]; MSSA (n-28)) was 0.15 µM, the “MIC90” value ([4]; VISA (n = 10)) was 1.2 µM and the “MIC90” value ([4]; VRSA (n = 14)) was 0.08 µM. The “MIC 50%” value [5] was >512 µg/mL, the “MIC 90%” value [5] was >512 µg/mL and the “MIC 50%” value [6] was 16 µg/mL. The “MIC 90%” value [6] was 64 µg/mL, the “MIC Range” value [6] was 1 to 64 µg/mL and the “MIC 50%” value [7] was >512 µg/mL. The “MIC 90%” value [7] was >512 µg/mL, the “MIC Range” value [7] was >512 µg/mL and the BEC ([8]; CFS 166, Environmental lab contaiminant) was 5.12 µg/mL. For the same molecule, the BEC ([8]; CFS 224, HER 1292) was 5.12 µg/mL, the BEC ([8]; CFS 225, HPH-6) was 0.512 µg/mL and the BEC ([8]; CFS 226, HPH-5) was 5.12 µg/mL. The BEC ([8]; CFS 227, HCN-4) was 5.12 µg/mL, the BEC ([8]; CFS 272, NRS53 (VISE)) was 0.215 µg/mL and the BEC ([8]; CFS 280, NRS101 (MRSE)) was 0.512 µg/mL. The BEC ([8]; CFS 300, NRS8, (VISE)) was 0.512 µg/mL, the BEC ([8]; CFS 313, NRS34 (VISE)) was 0.512 µg/mL and the BEC ([8]; CFS 533, NRS6, (VISE), bloodstream USA) was 0.512 µg/mL. For the same molecule, the BEC ([8]; CFS 552, ATCC #12228 (MSSE)) was 51.2 µg/mL, the BEC ([8]; CFS 769, NRS101) was 0.512 µg/mL and the BEC ([8]; CFS 1152, ATCC-14990) was 5.12 µg/mL. For the same molecule, the BEC ([8]; CFS 1154, ATCC-49461) was 5.12 µg/mL, the BEC ([8]; CFS 1161, NRS850-VCU028) was 5.12 µg/mL and the BEC ([8]; CFS 1164, NRS853-VCU041) was 5.12 µg/mL. The BEC ([8]; CFS 1165, NRS854-VCU045) was 5.12 µg/mL, the BEC ([8]; CFS 1168, NRS857-VCU065) was 0.512 µg/mL and the BEC ([8]; CFS 1174, NRS864-VCU112) was 51.2 µg/mL. It also gave a BEC ([8]; CFS 1184, NRS874-VCU126) of 5.12 µg/mL, a BEC ([8]; CFS 1185, NRS875-VCU127) of 5.12 µg/mL and a BEC ([8]; CFS 1186, NRS876-VCU128) of 0.512 µg/mL. For the same molecule, the “prevention of biofilm formation” value ([9]; 0.1×MIC) was “effectively and completely prevent” and the “prevention of biofilm formation” value ([9]; 1×MIC (32 ug/ml)) was “effectively and completely prevent”.
